Reference: article PMC11143218, “Evolved histone tail regulates 53BP1 recruitment at damaged chromatin” (Nature Communications, 2024)
Non-standard residues stand in square brackets, D forms with d. No end group written: not given here. *: point of attachment. Biotin = O=C1N[C@H]2[C@H](CS[C@H]2CCCCC(=O)*)N1; pS = N[C@@H](COP(=O)(O)O)C(=O)O

Target: T1, MBP-53BP1 IRIF formation fragment a.a. 1220–1639 (human, UniProt Q12888 1220-1639)
T1 construct: 53BP1, minimal region for IRIF formation, a.a; also called in vitro purified 53BP1 a.a; source: E. coli BL21, purified (amylose resin, maltose elution)
T1 sequence (Q12888 1220-1639): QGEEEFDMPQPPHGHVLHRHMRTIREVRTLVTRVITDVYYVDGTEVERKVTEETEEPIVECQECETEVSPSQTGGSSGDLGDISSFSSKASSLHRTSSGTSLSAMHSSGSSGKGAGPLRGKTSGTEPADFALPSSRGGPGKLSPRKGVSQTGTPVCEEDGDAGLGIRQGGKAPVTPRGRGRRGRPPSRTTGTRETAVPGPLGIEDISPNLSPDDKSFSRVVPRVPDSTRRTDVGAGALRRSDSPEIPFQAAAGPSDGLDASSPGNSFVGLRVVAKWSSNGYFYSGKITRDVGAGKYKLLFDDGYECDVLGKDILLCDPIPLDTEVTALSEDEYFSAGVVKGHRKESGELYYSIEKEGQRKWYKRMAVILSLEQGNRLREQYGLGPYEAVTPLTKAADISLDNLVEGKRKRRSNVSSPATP
Assay: pull-down; in vitro: MBP-purified protein incubated with 10.5 μg biotinylated peptide and 10 μL streptavidin beads, 1 h at 4 °C; washed three times with NETN; western blot
Details: both partners purified

binding result: binds
B1: biotinylated phosphorylated S139 H2AX C-terminal tail peptide (peptide)
peptide: Biotin-TSATVGPKAPSGGKKATQA[pS]QEY
notes: also called 23-amino acid phosphorylated H2AX C-terminal tail peptide; γH2AX C-terminal tail; source: synthetic peptide, bought: genscript
